Reference: patent US20180312587A1 (ADURO BIOTECH HOLDINGS EUROPE B V, published 2018)
Blank lines part the entries; values can stand above or below the binder they belong to.

How the values were obtained:
human SIRPα variant 1 [1] = target: T1, human SIRPα variant 1 (human, UniProt P78324 31-504); assay: flow cytometry, CHO-K1.hSIRPαV1 stable cells
T1 construct: full length ORF on transfected CHO-K1 or HEK293 cells; entry includes the signal peptide; also called hSIRPαV1; SIRPαV1
Protocol: Binding of the parental and humanized antibodies to hSIRPα was assessed by flow cytometry using the CHO-K1.hSIRPαV1 stable cell line. CHO-K1.hSIRPαV1 cells were seeded in 96-well round bottomed tissue culture plates and incubated for 40 minutes with the humanized hSIRPα.40A antibody variants (20 μg/mL and dilutions thereof) in PBS/1% BSA at 4° C. […] After this labeling procedure, cells were washed two times, resuspended in PBS/1% BSA, containing 0.1 μg/mL DAPI (BioLegend), and analysed by flow cytometry on the FACSVerse (BD Biosciences). Data were processed and analysed with FlowJo V10 software (FlowJo, LLC).
Target sequence in this assay (P78324 31-504 limits assumed, change not shown): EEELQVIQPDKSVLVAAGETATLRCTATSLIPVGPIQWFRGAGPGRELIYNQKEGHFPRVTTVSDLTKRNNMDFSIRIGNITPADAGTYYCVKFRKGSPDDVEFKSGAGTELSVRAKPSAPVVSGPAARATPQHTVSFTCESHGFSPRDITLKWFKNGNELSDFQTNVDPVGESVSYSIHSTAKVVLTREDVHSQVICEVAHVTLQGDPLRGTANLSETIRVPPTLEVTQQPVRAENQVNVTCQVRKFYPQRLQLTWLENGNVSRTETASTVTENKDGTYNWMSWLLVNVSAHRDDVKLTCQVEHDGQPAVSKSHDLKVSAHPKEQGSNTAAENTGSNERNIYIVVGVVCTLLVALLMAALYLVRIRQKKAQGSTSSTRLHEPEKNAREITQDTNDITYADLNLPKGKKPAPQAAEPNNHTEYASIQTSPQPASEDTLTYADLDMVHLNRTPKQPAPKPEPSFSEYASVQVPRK

human SIRPα variant 1 [2] = target: T1, human SIRPα variant 1; assay: flow cytometry, blockade of DyLight488-hCD47/Fc binding to U-937 cells
Protocol: hCD47 blockade was assessed by flow cytometry for the full panel of humanized hSIRPα.40A antibodies. To this end, the U-937 (ATCC CRL-1593.2) monocyte cell line was used as the source of hSIRPα in the assay. U-937 cells were seeded in 96-well round bottomed tissue culture plates and incubated for 45 minutes with FcR Blocking Reagent (Miltenyi Biotec) and the parental or humanized hSIRPα.40A antibody variants (20 μg/mL and dilutions thereof) in PBS/1% BSA at 4° C. […] After this labeling procedure, cells were washed two times, resuspended in PBS/1% BSA containing 0.1 μg/mL DAPI (BioLegend), and analysed by flow cytometry on the FACSVerse (BD Biosciences). Data were processed and analysed with FlowJo V10 software (FlowJo, LLC) and plotted using GraphPad Prism 6 (GraphPad Software, Inc.).
As depicted in FIG. 18 and the following Table 21, binding of recombinant hCD47 fused to an Fc domain of human IgG1 was monitored in the presence of increasing amounts of the humanized hSIRPα.40A antibody variants. Humanized hSIRPα.40A blocked the hSIRPα/hCD47 interaction, using the flow cytometry-based method described above. […] IC50 values represent the concentration at which half of the inhibition is observed.

human SIRPγ = target: T2, human SIRPγ (human, UniProt Q9P1W8 29-387); assay: CELISA, CHO-K1 transfectants; extrapolated
T2 construct: on transfected CHO-K1 cells; also called hSIRPγ
T2 sequence (Q9P1W8 29-387 limits assumed): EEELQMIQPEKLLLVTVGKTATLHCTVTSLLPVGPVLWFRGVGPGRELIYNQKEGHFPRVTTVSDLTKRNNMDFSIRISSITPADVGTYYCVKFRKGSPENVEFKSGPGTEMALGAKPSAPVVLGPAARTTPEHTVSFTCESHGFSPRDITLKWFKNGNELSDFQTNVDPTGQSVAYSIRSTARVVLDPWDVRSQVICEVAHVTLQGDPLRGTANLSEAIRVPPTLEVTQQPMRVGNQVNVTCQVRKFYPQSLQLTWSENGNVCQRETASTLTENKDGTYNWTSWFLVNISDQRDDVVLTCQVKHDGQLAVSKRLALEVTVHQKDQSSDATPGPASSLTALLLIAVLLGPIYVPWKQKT
Protocol: Binding of the humanized antibodies to hSIRPα was studied in CELISA format. Binding of the hSIRPα antibodies to human SIRPαV1, SIRPαV2, hSIRPβ1, and hSIRPγ was confirmed using CHO-K1 cells that had been transiently transfected with cDNA encoding the full length open reading frame of each of these respective targets subcloned into the pCI-neo vector. CHO-K1.hSIRPαV1, CHO-K1.hSIRPαV2, CHO-K1.hSIRPβ1, and CHO-K1.hSIRPγ cells were seeded in culture medium (DMEM-F12 (Gibco) supplemented with 5% New Born Calf Serum (BioWest) and Pen/Strep (Gibco)) in 96-well flat-bottom tissue culture plates and incubated at 37° C., 5% CO₂ and 95% humidity until cell layers were confluent. Subsequently, culture medium was removed and cells were incubated for 1 hour at 37° C., 5% CO₂ and 95% humidity with purified hSIRPα antibodies (10 μg/mL and dilutions thereof). Next, cells were washed with PBS-T and incubated for 1 hour at 37° C., 5% CO₂ and 95% humidity with goat-anti-human IgG-HRP conjugate (Jackson Immuno Research) or goat-anti-mouse IgG-HRP (Southern Biotech). Subsequently, cells were washed three times with PBS-T and anti-hSIRPα immunoreactivity was visualized with TMB Stabilized Chromogen (Invitrogen). Reactions were stopped with 0.5 M H₂SO₄ and absorbances were read at 450 and 610 nm. […] In Table 13 the EC50 values of the humanized hSIRPα antibodies are depicted.
Table 13: Binding of humanized and parental hSIRPα.50A antibodies to CHO-K1.hSIRPαV1, CHO-K1.hSIRPαV2, CHO-K1.hSIRPβ1, and CHO-K1.hSIRPγ cells.

human SIRPα variant 1 [3] = target: T1, human SIRPα variant 1; assay: CELISA, CHO-K1 transfectants, point mutant study
Protocol: To pinpoint the amino acids for interaction of hSIRPα.50A with the IgV domain, several point mutants of hSIRPαV1 were generated based on single amino acid differences between hSIRPαV1/V2 and hSIRPβ1. […] Amino acids in the hSIRPα IgV domain that are altered in hSIRPβ1 were mutated by using the QuikChange II Site-Directed Mutagenesis Kit (Stratagene) and the full length hSIRPαV1 sequence (SEQ ID NO: 33) as donor cDNA. Binding of hSIRPα.50A to hSIRPαV1 point mutants was tested using CELISA. To this end, CHO-K1 cells were transiently transfected, using Lipofectamine 2000, with cDNA encoding the full length open reading frame of hSIRPαV1 and mutants thereof, and hSIRPβ1 subcloned into the pCI-neo vector. Transfected cells were seeded in culture medium (DMEM-F12 (Gibco) supplemented with 5% New Born Calf Serum (BioWest) and Pen/Strep (Gibco)) in 96-well flat-bottom tissue culture plates and incubated at 37° C., 5% CO₂ and 95% humidity for 24 hours. Subsequently, culture medium was removed and cells were incubated for 1 hour at 37° C., 5% CO₂ and 95% humidity with purified hSIRPα antibodies (used at 10 μg/mL and dilutions thereof). Next, cells were washed with PBS-T and incubated for 1 hour at 37° C., 5% CO₂ and 95% humidity with goat-anti-mouse IgG-HRP (Southern Biotech). […] Reactions were stopped with 0.5 M H₂SO₄ and absorbances were read at 450 and 610 nm. […]
Target sequence in this assay (P78324 31-504 limits assumed, change not shown): as the sequence (P78324 31-504 limits assumed, change not shown) above

EC50 (human SIRPα variant 1 [1]): 0.022 nM
IC50 (human SIRPα variant 1 [2]): 1.12 nM
B1: hSIRPα.40A (antibody, mouse IgG1, kappa, V domains shown)
VH: EVQFQQSGTVLARPGTSVKMSCKASGSTFTSYWMHWVKQGPGQGLQWIGAIYPVNNDTTYNQKFKGKAELTVVTSTSTAYMEVSSLTNEDSAVYYCTRSFYYSLDAAWFVYWGQGTLVTVSA
VL: DIQMTQSPSSLSASLGERVSLTCRASQDIGSRLNWLQQEPDGTIKRLIYATSSLDSGVPKRFSGSRSGSDYSLTISGLESEDFVDYYCLQYASSPFTFGGGTKLEINR
notes: mouse antibody, full chains without signal peptide; also called mouse hSIRPα.40A

EC50 (human SIRPγ): 1.25 nM
EC50 (human SIRPα variant 1 [3]): 0.535 nM
B2: hSIRPα.50A (antibody, V domains shown)
VH: QVQLQQSGPELVKPGASVRISCKASGFTFTNYYIHWVKQRPGQGLEWIGWIYPGNVNTKYNEKFKAKATLTADKSSTTAYMQLSSLASEDSAVYFCARPTIIATDFDVWGAGTTVTVSS
VL: DIVMTQSHKFMSTSVGDRVNITCKASQGVGTAVGWYQQKPGQSPRLLIYWASTRHTGVPDRFTGSGSGTDFSLAISNVQSEDLADYFCQQYSTYPFTFGGGTNLEIK
notes: light chain constant domain not tied; also called mouse hSIRPα.50A; hSIRPα.50A.mIgG1
